Experimental data from US20240400716A1 (UNIVERSITY OF PITTSBURGH OF THE COMMONWEALTH SYSTEM OF …, published 2024).

Target: T1, human PSMA polypeptide (prostate specific membrane antigen) (human, UniProt Q04609 1-750)
T1 construct: also called PSMA protein
Assay: binding to LNCaP cells expressing PSMA
Description: Binding affinity and specificity to a human PSMA polypeptide were tested using LNCaP cells expressing the PSMA protein.

T1 sequence (Q04609 whole entry): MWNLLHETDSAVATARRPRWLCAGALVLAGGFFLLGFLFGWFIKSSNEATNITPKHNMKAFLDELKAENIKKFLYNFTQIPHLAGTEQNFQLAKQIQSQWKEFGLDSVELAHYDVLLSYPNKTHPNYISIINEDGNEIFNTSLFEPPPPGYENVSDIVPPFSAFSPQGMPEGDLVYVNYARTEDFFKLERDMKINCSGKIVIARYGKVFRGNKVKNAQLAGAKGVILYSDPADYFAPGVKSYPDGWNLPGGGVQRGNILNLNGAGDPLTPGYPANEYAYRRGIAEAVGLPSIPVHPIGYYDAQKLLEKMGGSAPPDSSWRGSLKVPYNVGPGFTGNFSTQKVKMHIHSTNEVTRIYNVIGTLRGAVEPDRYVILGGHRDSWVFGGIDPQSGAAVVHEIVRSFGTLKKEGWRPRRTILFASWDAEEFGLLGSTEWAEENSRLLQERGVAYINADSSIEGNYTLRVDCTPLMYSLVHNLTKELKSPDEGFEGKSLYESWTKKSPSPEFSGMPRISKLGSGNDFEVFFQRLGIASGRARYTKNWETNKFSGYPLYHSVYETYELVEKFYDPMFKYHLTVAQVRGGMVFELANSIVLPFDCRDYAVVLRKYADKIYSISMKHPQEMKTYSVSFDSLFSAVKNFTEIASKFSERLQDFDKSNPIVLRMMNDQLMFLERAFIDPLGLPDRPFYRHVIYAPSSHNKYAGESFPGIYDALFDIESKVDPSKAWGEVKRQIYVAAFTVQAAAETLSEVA

Binder	EC50
Clone #6 (VH domain) (VHH, Single human VH antibody domain from a phage library, not camelid; also called VH-W5A4) VHH: EVQLVESGGGLVQPGGSLRLSCTVSGFTFSSYAVSWVRQAPGQGLEWVSAIGAGGGTYYADSVKGRFTISRDNSKNTLYLQMNSLRAEDTAVYYCAKDGADWGQGTLVTVSS	32.7 nM
Clone #8 (VH domain) (VHH, Single human VH antibody domain from a phage library, not camelid) VHH: EVQLVESGGGLVQPGGSLRLSCTVSGFTFSSYAVSWVRQAPGQGLEWVSSIGAGGGTYYADSVKGRFTISRDNSKNTLYLQMNSLRAEDTAVYYCAKDGADWGQGTLVTVSS	10.8 nM
Clone #9 (VH domain) (VHH, Single human VH antibody domain from a phage library, not camelid; also called VH-4mut) VHH: EVQLVESGGGLVQPGGSLRLSCTVSGFTFDDYAVSWVRQAPGQGLEWVSSIGAGGGTYYADSVKGRFTISRDDSKDTLYLQMNSLRAEDTAVYYCAKDGVDWGQGTLVTVSS	15.1 nM
Clone #7 (VH domain) (VHH, Single human VH antibody domain from a phage library, not camelid) VHH: EVQLVESGGGLVQPGGSLRLSCTVSGFTFSSYAVSWVRQAPGQGLEWVSAIGAGGGTYYADSVKGRFTISRDNSKNTLYLQMNSLRAEDTAVYYCAKDGVDWGQGTLVTVSS	8.65 nM
Clone #3 (VH domain) (VHH, Single human VH antibody domain from a phage library, not camelid; also called VH-Z4D2) VHH: EVQLVESGGGVVQPGRSLRLSCAASGFTFSSYAMHWVRQAPGKGLEWVATIYQDGSESEYVDSVKGRFTVSRDNAKNTLYLQMDSLRAEDTATYYCVGRGSTSITPVWGLGTLVTVSS	4.59 nM
Clone #4 (VH domain) (VHH, Single human VH antibody domain from a phage library, not camelid; also called VH-Fla; VH-F1a) VHH: EVQLVESGGGVVQPGRSLRLSCAASGFTFSSYAMHWVRQAPGKGLEWVATIYQDGSESEYVDSVKGRFTVSRDDAKNTLYLQMDSLRAEDTATYYCVGRDSTSITPVWGLGTLVTVSS	3.05 nM
Clone #5 (VH domain) (VHH, Single human VH antibody domain from a phage library, not camelid) VHH: EVQLVESGGGMVQPGRSLRLSCAASGFTFSSYAMHWIRQAPGKGLEWVATIYQDGSESEYVDSVKGRFAVSRDNAKNTLYLQMDSLRAEDTATYYCVGRASASITPVWGLGTLVTVSS	2.95 nM
Clone #11 (VH domain) (VHH, Single human VH antibody domain from a phage library, not camelid) VHH: EVQLVESGGGVVQPGRSLRLSCAASGFTFSSYAMHWVRQAPGKGLEWVATIYQDGSESEYVDSVKGRFTVSIDNAKNTLYLQMDSLRAEDTATYYCVGRASTSITPVWGLGTLVTVSS	1.81 nM
Clone #10 (VH domain) (VHH, Single human VH antibody domain from a phage library, not camelid) VHH: EVQMVESGGGVVQPGRSLRLSCAASGFTFSSYAMHWVRQAPGKGLEWVATIYQDGSESEYVDSVKGRFTVSIDNAKNTLYLQMDSLRAEDTATYYCVGRDSTSITPVWGLGTLVTVSS	8.7 nM
Clone #2 (scFv) (scFv) scFv: QVQLQQSGAEVKKPGESLKISCKGSGYSFTNHWIAWVRQMPGKGLEWMGIIYPGDSDTRYSPSFQGQVTISADKSISTAYLQWSSLKASDTAMYYCARAQVGAFDIWGQGTMVTVSSGGGGSGGSGSSGGGSQSALTQPASVSGSPGQSITISCTRARDDVGGDNFVSWYQQHPGKAPKLMIYDVSNRPSGVSNRFSGSKSGNTASLTISGLQAEDEADYYCSSYTSSSTLPVFGGGTQLTVLG	8.97 nM
Clone #1 (scFv) (scFv) scFv: QVTLKESGAEVKKPGESLKISCKASGYSFTNYWIGWVRQMPGKGLEWMGIIYPGDSDTRYSPSFQGQVTISADKSISTAYLQWSSLKASDTAMYYCARQGGYYYGMDVWGQGTTVTVSSGGGGSGGSGSGGGGSVPVLTQPHSVSESPGKTVTISCTRSSGSIASNYVQWYQQRPGSSPTTVIYEDNQRPSGVPDRFSGSIDMSSNSASLTISGLRTEDEGDYYCQSYDSRNHVVFGGGTQLTVLG	6.56 nM
